From US20080214461
Numbering of substitutions follows the chain as printed. In names and notes the source's numbering stands.

B1: FIX-Y94F/K98T/Y177F (recombinant, full length, HEK 293), activated form (protein)
chain: YNSGKLEEFVQGNLERECMEEKCSFEEAREVFENTERTTEFWKQYVDGDQCESNPCLNGGSCKDDINSYECWCPFGFEGKNCELDVTCNIKNGRCEQFCKNSADNKVVCSCTEGYRLAENQKSCEPAVPFPCGRVSVSQTSKLTRAEAVFPDVDYVNSTEAETILDNITQSTQSFNDFTRVVGGEDAKPGQFPWQVVLNGKVDAFCGGSIVNEKWIVTAAHCVETGVKITVVAGEHNIEETEHTEQKRNVIRIIPHHNFNAAINTYNHDIALLELDEPLVLNSYVTPICIADKEYTNIFLKFGSGYVSGWGRVFHKGRSALVLQYLRVPLVDRATCLRSTKFTIFNNMFCAGFHEGGRDSCQGDSGGPHVTEVEGTSFLTGIISWGEECAMKGKYGIYTKVSRYVNWIKEKTKLT
B2: FIX-Y94F/K98T/Y177F/I213V/E219G (recombinant, full length, HEK 293), activated form (protein)
chain: B1 chain with I383V, E388G
B3: FIX-Y94F/A95aK/K98T/Y177F (recombinant, full length, HEK 293), activated form (protein)
chain: B1 chain with A261K
B4: FIX-Y94F/A95aK/K98T/Y177F/I213V/E219G (recombinant, full length, HEK 293), activated form (protein)
chain: B1 chain with A261K, I383V, E388G

Experiments:
[1] = molecular target: T1, activated factor VIII (FVIIIa): Recombinate Antihemophilic Factor activated with thrombin, P00451
T1 chain: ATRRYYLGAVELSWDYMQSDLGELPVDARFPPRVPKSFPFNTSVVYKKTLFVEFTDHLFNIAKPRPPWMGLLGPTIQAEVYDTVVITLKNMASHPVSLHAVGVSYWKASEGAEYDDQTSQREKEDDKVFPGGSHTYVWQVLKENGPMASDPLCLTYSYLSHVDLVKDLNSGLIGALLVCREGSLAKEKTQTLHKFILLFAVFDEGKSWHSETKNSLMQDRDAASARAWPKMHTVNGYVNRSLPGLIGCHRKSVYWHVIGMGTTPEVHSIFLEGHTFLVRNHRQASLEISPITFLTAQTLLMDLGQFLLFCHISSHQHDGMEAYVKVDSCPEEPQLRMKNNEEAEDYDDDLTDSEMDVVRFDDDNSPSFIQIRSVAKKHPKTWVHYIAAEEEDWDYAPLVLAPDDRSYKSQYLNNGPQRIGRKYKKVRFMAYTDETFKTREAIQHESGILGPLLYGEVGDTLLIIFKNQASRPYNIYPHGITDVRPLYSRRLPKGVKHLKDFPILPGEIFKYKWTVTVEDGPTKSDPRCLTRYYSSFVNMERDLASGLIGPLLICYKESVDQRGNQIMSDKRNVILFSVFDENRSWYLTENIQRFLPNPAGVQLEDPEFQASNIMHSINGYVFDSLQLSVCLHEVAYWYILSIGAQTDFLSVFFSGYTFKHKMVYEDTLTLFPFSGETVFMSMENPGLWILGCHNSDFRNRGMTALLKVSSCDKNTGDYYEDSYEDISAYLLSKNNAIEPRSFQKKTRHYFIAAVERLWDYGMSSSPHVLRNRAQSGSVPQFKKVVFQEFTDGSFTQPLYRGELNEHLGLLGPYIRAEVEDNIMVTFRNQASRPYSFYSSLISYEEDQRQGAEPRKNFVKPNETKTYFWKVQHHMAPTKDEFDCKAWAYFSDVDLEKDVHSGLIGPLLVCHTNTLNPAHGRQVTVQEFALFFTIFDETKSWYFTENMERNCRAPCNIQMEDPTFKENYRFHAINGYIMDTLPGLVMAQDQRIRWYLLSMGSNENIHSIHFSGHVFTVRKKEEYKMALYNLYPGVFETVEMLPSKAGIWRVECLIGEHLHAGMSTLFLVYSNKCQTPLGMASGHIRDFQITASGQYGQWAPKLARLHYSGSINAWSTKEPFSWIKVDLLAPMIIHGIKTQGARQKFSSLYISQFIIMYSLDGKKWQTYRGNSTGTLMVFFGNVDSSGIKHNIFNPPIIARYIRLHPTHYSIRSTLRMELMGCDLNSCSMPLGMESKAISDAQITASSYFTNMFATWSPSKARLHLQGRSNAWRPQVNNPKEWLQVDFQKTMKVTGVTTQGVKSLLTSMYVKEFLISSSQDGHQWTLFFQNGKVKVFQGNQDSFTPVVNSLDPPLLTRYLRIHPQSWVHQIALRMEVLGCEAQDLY

Chain of factor X (FX), P00742 (P00742 whole entry, looked up): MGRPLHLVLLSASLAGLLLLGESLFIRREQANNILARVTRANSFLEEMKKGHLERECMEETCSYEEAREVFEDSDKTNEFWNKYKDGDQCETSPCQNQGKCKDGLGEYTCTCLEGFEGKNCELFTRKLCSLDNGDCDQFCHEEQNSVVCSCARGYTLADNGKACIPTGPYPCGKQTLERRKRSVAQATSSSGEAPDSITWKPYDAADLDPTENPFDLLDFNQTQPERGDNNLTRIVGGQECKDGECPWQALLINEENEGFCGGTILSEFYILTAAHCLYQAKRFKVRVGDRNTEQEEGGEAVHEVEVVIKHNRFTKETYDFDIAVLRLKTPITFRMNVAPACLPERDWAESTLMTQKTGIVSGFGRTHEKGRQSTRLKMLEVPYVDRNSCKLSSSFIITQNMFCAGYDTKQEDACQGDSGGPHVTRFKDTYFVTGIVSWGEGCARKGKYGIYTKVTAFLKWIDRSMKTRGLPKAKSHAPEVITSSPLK

Protein	KM (nM), FX activation with FVIIIa (factor X (FX), P00742) [nM]	KM (nM), FX activation without FVIIIa (factor X (FX), P00742) [nM]	kcat (10^-3 min^-1), FX activation without FVIIIa (factor X (FX), P00742) [s⁻¹]	kcat (min^-1), FX activation with FVIIIa (factor X (FX), P00742) [min⁻¹]	kcat/KM (10^-6 nM^-1 min^-1), FX activation without FVIIIa (factor X (FX), P00742) [M⁻¹ s⁻¹]	kcat/KM (nM^-1 min^-1), FX activation with FVIIIa (factor X (FX), P00742) [M⁻¹ s⁻¹]	rate of FX activation against pdFIXa (factor X (FX), P00742)	ratio kcat/KM +/- FVIIIa (FX activation) [1]	fold increase of kcat of FX activation against pdFIX (factor X (FX), P00742)
B1	14	68	0.000333	68	4880	8.33e+07	FIX-WT and FIX-Y94F/K98T/Y177F activated FX at the same rate as pdFIXa	16,424	
B2	17	40	0.00222	528	54900	5.33e+08		9,581	enhanced the kcat by a factor of 17 and 6, respectively
B3	20	73	6.67e-05	7	950			5,705	
B4	13	55	0.00102	122	18200	1.5e+08		8,354	enhanced the kcat by a factor of 17 and 6, respectively
